Measurements as given in US9371519B2, “Complex type sugar chain hydrolase” (National Institute of Advanced Industrial Science and …, priority 2011, dated 2016).
“Also recorded” adds a separate entry of the source.

Test: Detection of transglycosidase activity (HPLC, MS of transglycosylation product)
Type: biochemical
Details: donor 2 mM NGA2-Asn-Fmoc, acceptor 50 mM p-nitrophenylglucose, pH 6.0, 30° C.
Method: (§1) The transglycosidase activity of Endo-Om was detected by incubating the reaction solution containing a biantennary complex type sugar chain as the substrate, acceptor molecules (p-nitrophenylglucose), and an Endo-Om partially purified enzyme solution at 30° C. for 3 hours, and then subjecting it to HPLC after the completion of the reaction; a new peak different from the hydrolysate was detected, and was identified by MS analysis to be a transglycosylation product including an acceptor molecule to which a biantennary complex type sugar chain is added (FIG. 7).
as §1, with “Endo-Cp” for “Endo-Om”, “11).” for “7).”
as §1, with “of Endo-Pa” for “of Endo-Om”, “an Endo-Pa” for “an Endo-Om”, “for 16” for “for 3”, “(FIG. 15).” for “(FIG. 7).”
The transglycosidase activity of Endo-Om was detected as follows. The reaction solution containing a sodium acetate buffer at a final concentration of 100 mM (pH 6.0), 2 mM NGA2-Asn-Fmoc, 50 mM acceptor molecule (p-nitrophenylglucose), and an Endo-Om purified enzyme solution (total volume: 10 μl) was incubated at 30° C. for 3 hours, and heated at 95° C. for 5 minutes to stop the enzyme reaction. The total amount of the reaction solution was subjected to HPLC by the method described in Example 4, and detection was carried out using a UV detector (274 nm). In addition, the peak corresponding to a transglycosylation product was collected, freeze-dried, and then redissolved in Milli-Q water and subjected to mass spectrometry using MALDI-QIT-TOFMS (AXIMA-QIT, Shimadzu Co., Ltd.), thereby identifying the transglycosylation product.
The transglycosidase activity of Endo-Cp was detected as follows. […]
The transglycosidase activity of Endo-Pa was detected as follows. […]

B1: Endo-Zr: endo-β-N-acetylglucosaminidase from Zygosaccharomyces rouxii ATCC2623, amino acid sequence SEQ ID NO. 13, 639 amino acids (protein, listed as Zygosaccharomyces rouxii)
chain: MKRINQVPGKPEITSLYFDDLNSLQRWFDKGFMDSRDLSNVPKERYSNYVKFEKDSIITIPNLSARKTEIIVCHDFKGGYQSGHDLYPNGQYGTESCKPYSLRYPEIVDKFVYFSHHCVTIPPSPWTNYLHRHSIPVLGTLILEHYPHNGELFKKNAKGEFLYVKYLVELCRKFHFEGWLINFETVFGNNSKQVIPFLRELTARVECEIYGGSVIWYDAFTTFSNKPSHQNEVNLFNYDAYENSSQFMTNYMWDSHNVGNSLRNVGALGMHSHVALGVDVWGRNMQVCRGGFESNIAIYYAKRFGTNAVIFAPGWTYENFGEDQFYEKDDIFWGNIKSTLQLDSYSDSQLSSWFVSESKKTRYFTTFFSTGSGNFFNLNGRRISNDNWVQLGLSTPFPVNSHSYLSFKDSFVGGSCLALPLSPMENGKLHLFRFEQFIKDQQKTSDSEIRVKLSYKSLGALPPVKLVIKCFVIRRGKRSKTILKVDDVSLVLPLSHSACQTAQGSTKWAVVEQIVPLPSLESRFLEEYYVEDAHLEWTMDNNHDEWLMVPERTEDLDCKLLIGSLCLEIGPHEDNNKRQIVRNGPQLSWQDNESSFMWLKLQDGKLDSVLFTPTTKVNGKQPTILECGRNGTLKFVVKK
With B1 the Transglycosidase activity (16 hours) was “not detected; also recorded: transglycosidase activity was not confirmed”.

B2: Endo-Om: endo-β-N-acetylglucosaminidase from methylotrophic yeast Ogataea minuta IFO10746, amino acid sequence SEQ ID NO. 1, 772 amino acids (protein, listed as Ogataea minuta)
chain: MAQSQLLGGAVRPVFFDKLEELRRWHTQSANLSRESELDSLNVATEPFSSYERAQTGSGSRSSEPVPGDKEDPPIKLMVCHDFKGGYQDYEDAQPLGYFPHPTGSRYFLQYPQLIDQFVYFSHHRVTVPPVNWINFCHRNGIKCFGTVIFEGNASKDFEELDRLVSRDEKGDFVFVDALIKLAAHYGFDGYLLNIETTFSNTKIAADLEPFAEQLKSGLHCLDSKNELIWYDSYVFPANKVSYTNGVTESNYNFFSLSDAFFSNYWWNIKNLQENIKNVGVLGVQKKIYVGYDVWGRGTLVGKGGFDSSLACKMIAKFKSNVALFAPAWTYESLGPKDFNQNDARFWIGLFENESSISSTVPPHSSAVYKINESSFIFYTNFSSGEGNRFFSKGSEVYRKNWVNGSLQFDLPIDLHRKDKNGLQWALDKSDAFHGGACLEIKYSEIKDENGYQIFNNQMVSDFTLFNFTKECHFPTVNVKVTYKLNHKTKSTFKIKIKYIIERRFRSVQTVRTGYLTIPLLSTSGKWFTVEESFQINLQTSHEYIVLESAHVTYDEDRSADSFFRSYIVEDSAITSVIDNEEYEKLINSEIYNDDEDEDWILVPSDVSISSSESQSNDSKTQYLGRKLFGNKSTPKTRTLEGTAPLLRIGEFAIISANNYPSSNFLAVTSVKSIESSRLEGDSLVLLNWQVGEGHQKGVCYYIIYVNGAVVGLSVAPKFIYQDTELASENSASARSNYKKSGLGSSSDRKSKVRVDSVDKLGNVFTGSEVWV
In the case of B2, the Transglycosidase activity (3 hours) is reported as “has activity for transferring the cleaved sugar chain to any acceptor molecule; also recorded: significant transglycosidase activity was confirmed”.

B3: Endo-Pa: endo-β-N-acetylglucosaminidase from Pichia anomala ATCC36904, amino acid sequence SEQ ID NO. 9, 656 amino acids (protein, listed as Pichia anomala)
chain: MQHDHAAIKFEEDSISSQRFSSLDEVEKWYNTKNRSPLDDLRIPRESLSHYNRFRDNNDEIKVLVCHDFKGNYQEGEDENPLGYFPHSSGQHYFIQFPSLVDLFIFFSHYKIAVPPVSWINSLHRQGIPVLGTLIFEGTDVSESDKLLEKNENGDFKYLEILCELVRHYGFDGWLVNMESHFSSVAKAQDLLLFDEALRSTLHLKVPGSKLIWYDSLITQKNRVFYQNAVNEWNYDHFSTSDLFFTNYWWNEEDLKRNILNIGLQGVKQKLFVGVDIWGRGSRIGNGGFESGLAINYLKRYSTNVALFAPAWTYENFEEDQFLIKDRKFWIGDQTSDETGGSVATYVSHYTTPVYVKDQNVKFYTNFSVGEGTKYRVFAHTVFKNNWVNGNLQLPTPIIDNEKRIDIYYKESFNGGSSLKVTQRNSILNDGKSNILQLFSFKNDIHSNNLNVSVSFKYLSEIPLNSTFQLEIKFYIERRYRSVTRVRDGTFKLPLAFSNKNWKYIETSFALPRLQIREHFVLEGLQIRWVDNVDELSSSIGTSGDFTESWIIVPQNSDPNAVYELLIGDLLVEGIKTANGNIDAVTKLSRKITLDSRSILATWKDDTEVLYWIIYVNAKFLGIAHKSLWRVQRGDKLRVDVFTRSGKLVKGEDIFI
For B3, the Transglycosidase activity (16 hours) was “significant transglycosidase activity was confirmed; also recorded: has activity for transferring the cleaved sugar chain to any acceptor molecule”.

B4: Endo-Cp: endo-β-N-acetylglucosaminidase from Candida parapolymorpha DL-1 ATCC26012, amino acid sequence SEQ ID NO. 5, 745 amino acids (protein, listed as Candida parapolymorpha)
chain: MPRNTAKHSSLPQTNLPLSSLESSFFDSLDELANWERRIHEKSFELDELNKPTEKLAHYTRARQQSTSEDVKLLVCHDLKGGYQVNEDEDPLGYFPHPDGQHYFLQYPQLVDKFVYFSHHRVSIPPVSWINVCHRNAIKCLGTVIFEGNTYRDFEEADKLLTKQDGEYVFVRCLVALVEYFQFDGYLFNIETRFSNTRIASLLEPFLEQLRAELHVRNPSTELIWYDSYIYPENRVLYKNGVTEANYNFFSCCDSFFTNYWWNVKHLQDNIKNVGVLGSRLKVYAGYDVWGRGTMIGKGGYDSALACQMIKKYRSNVALFAPAWTYEYLARKDFTQNDTRFWIGLFDGESSMATTFKPYSSPLYKINDSNFVFYTNFGSGEGCAFYECGEKVYRDNWVNGSLQMEIPYAIHTRNKNGIQWTLSKEDSFHGGSCVEIKYNEVVDDKGYQVFNNQTINSFSLFSFVQDCSFPTVNVKLTYKLNHKTKSFFKLKIGYYIERRYRTVQKVRSGCLVVPLLSTNDQWFTIEEPFHVSLQNSHEFIVLDSATIFYEETEDPFMRAHVVEDQSTSSVIDNEEYEKLMNSEIYFDDEDEDWILVPSDISMESTDNGGRENHTWKVISNQIRKKHPKSHPSTSPVLKLGELAIINANDYPSDSFFKLMPVNSIDVRRWEGKILLIWKTNQDSVLYHLIFVDDVFQGISLVSKFVFEDQAVDEKSFKTKSGGSTKVRIDTVNRLGILVKGTDM
For B4, the Transglycosidase activity (3 hours) was “significant transglycosidase activity was confirmed; also recorded: has activity for transferring the cleaved sugar chain to any acceptor molecule”.
